Results from patent US20060078622A1, “Pharmaceutical formulations containing microparticles or nanoparticles of a delivery agent” (priority 2004, published 2006).
Values joined by “and” are separate entries in the source; they are usually repeats but may differ in a detail not shown here. Equal entries are not always repeated. Where two headings read alike, the source gives them in different places.

Conditions: IV
Description: This value was assumed to be constant in the estimates of absolute bioavailability.

[1] = dose 8 μg/kg, individual animals
[2] = dose 9 μg/kg, individual animals

With Insulin: Recombinant human zinc insulin as the substance, how does the “AUC0->∞” value (dose 8 μg/kg, X ± SD (n = 3)) read?
The value was 100.7 ± 2.4 ng·min/mL.

And the “AUC0->∞/Dose” value (dose 8 μg/kg, X ± SD (n = 3))?
Its value is 0.0126 ± 0.0003 kg·min/mL.

What about the Vd (dose 8 μg/kg, X ± SD (n = 3)) of the same substance?
The Vd was 0.157 ± 0.005 L/kg.

What about the “AUC0->∞” value [1] of the same substance?
Its value is 99.35 ng·min/mL and 99.32 ng·min/mL and 103.4 ng·min/mL.

What about the “C0->∞/Dose” value [1] of the same substance?
The value was 0.0063 kg/mL and 0.0066 kg/mL and 0.0062 kg/mL.

And the Co [1]?
Its Co is 50.67 ng/mL and 52.64 ng/mL and 49.63 ng/mL.

And the Vd [1]?
Its Vd is 0.15788 L/kg and 0.15198 L/kg and 0.16119 L/kg.

What about the kel [1] of the same substance?
Its kel is 0.51 min⁻¹ and 0.53 min⁻¹ and 0.48 min⁻¹.

What about the “AUC0->∞” value (dose 9 μg/kg, X ± SD (n = 3)) of the same substance?
Its value is 99.4 ± 23.6 ng·min/mL.

And the “AUC0->∞/Dose” value (dose 9 μg/kg, X ± SD (n = 3))?
Its value is 0.0110 ± 0.0026 kg·min/mL.

What about the Co (dose 9 μg/kg, X ± SD (n = 3)) of the same substance?
The Co was 46.1 ± 9.5 ng/mL.

What about the Vd (dose 9 μg/kg, X ± SD (n = 3)) of the same substance?
The Vd was 0.201 ± 0.043 L/kg.

What about the kel (dose 9 μg/kg, X ± SD (n = 3)) of the same substance?
The kel was 0.47 ± 0.02 min⁻¹.

What about the “AUC0->∞” value [2] of the same substance?
The value was 99.55 ng·min/mL and 75.67 ng·min/mL and 122.89 ng·min/mL.

What about the “C0->∞/Dose” value [2] of the same substance?
The value was 0.0052 kg/mL and 0.0040 kg/mL and 0.0061 kg/mL.

What about the Co [2] of the same substance?
Its Co is 46.79 ng/mL and 36.32 ng/mL and 55.30 ng/mL.

And the Vd [2]?
Its Vd is 0.19235 L/kg and 0.2478 L/kg and 0.16275 L/kg.

What about the kel [2] of the same substance?
The kel was 0.47 min⁻¹ and 0.48 min⁻¹ and 0.45 min⁻¹.

And the “AUC0->∞/Dose” value (dose […], X ± SD (n = 5))?
The value was 0.0062 ± 0.0011 kg·min/mL.

What about the Vd (dose […], X ± SD (n = 5)) of the same substance?
Its Vd is 0.219 ± 0.068 L/kg.

And the “C0->∞/Dose” value (Average over all doses (2.5, 8, 9 μg/kg))?
The value was 0.0053 kg/mL.
